Reference: patent publication US20240425607A1, “IL-18BP ANTAGONIST ANTIBODIES AND THEIR USE IN MONOTHERAPY AND COMBINATION THERAPY IN THE TREATMENT OF CANCER” (Compugen Ltd., priority 2023, published 2024)

Legend:
[1] = biological target: T1, human IL18BP-Fc binding to human IL-18 (Homo sapiens, UniProt O95998); assay: Blocking of hIL18BP-hIL-18 interaction by ELISA, IL18BP plate bound; settings: 1 ng/ml human IL-18, compared with clone W19089C
T1 sequence (O95998 31-194): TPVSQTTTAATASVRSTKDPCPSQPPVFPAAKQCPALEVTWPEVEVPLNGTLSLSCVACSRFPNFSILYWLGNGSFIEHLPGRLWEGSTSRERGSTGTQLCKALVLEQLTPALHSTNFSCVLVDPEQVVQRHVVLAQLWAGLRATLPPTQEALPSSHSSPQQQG
Procedure: This assay was utilized to identify anti-human IL18BP Abs that inhibit the binding interaction between human IL18BP- and its counterpart, human IL-18. […] Human IL18BP-Fc protein was coated on the wells of a high binding plate overnight at 4° C. (1 μg/ml, 100 μl/well volume). Plates were washed three times with PBS-T buffer (1×PBS pH 7.4, 0.05% Tween20) incubated with 250 μL blocking buffer (2.5% skim milk in PBS) at room temperature (RT) for 2 hr. Blocking buffer was removed and plates were washed three times with PBS-T buffer. Plate-bound ligands were incubated with anti-human IL18BP Abs in 1% BSA in PBS buffer two times serially diluted (2.5-0.019 μg/ml, 100 μL/well volume) at RT for 1 h. Plates were washed one time with PBS. Plate-bound ligands were incubated with human IL-18 (cat. 9124-IL, R&D) in 1% BSA in PBS buffer (1 ng/ml, 100 μL/well volume) at RT for 1 h. Plates were washed three times with PBS-T (0.05% Tween20 in PBS). Biotinylated anti-IL18 detection antibody, cat. D045-6, R&D 1:1000 in 1% BSA in PBS buffer was added (100 μL/well). This was incubated at RT for 1 hr, and plates were washed again. Peroxidase Streptavidin, Jackson, cat. 016-030-084 1:1000 in 2.5% skim milk in PBS was added (100 μL/well) for 1 hr at RT. […] The HRP reaction was stopped by adding 50 μL 1N HCl and absorbance signals at 450 nm were read on a luminescence Reader-EnSpire (Perkin Elmar). […]

[2] = tested on: MEL624 cells co-cultured with human TILs; assay: Killing of MEL624 melanoma cells by human TILs (IncuCyte); assay type: cell-based; settings: 10 μg/ml; rhIL-18 50 ng/ml + rhIL-18BP 1 μg/ml; 72 hours
Procedure: The co-culture was monitored for 72 hours using an IncuCyte live cell imaging instrument. […] In the presence of the isotype control antibody (black), IL-18BP abrogated the effects of IL-18, while the anti-IL-18BP antibody (turquoise) was able to completely restore these effects.

[3] = tested on: human TDCs with endogenous IL18 and IL18BP; assay: Ex vivo culture of human tumor dissociated cells (TDCs); assay type: cell-based
Procedure: Resected tumor specimens were cut into 1 mm pieces using scalpel and transferred into enzymatic digestion mix (Tumor Dissociation kit, Miltenyi, 130-095-929). Dissociation was done according to the manufacturer's instructions using gentle MACS Dissociator (Miltenyi Biotec). Dissociation time lasted 1 h under mechanical rotation and heating. Samples were centrifuged for 3 min at 300 g, pellet was resuspended in RPMI, passed through a MACS SmartStrainer (70 μm), and centrifuged for 7 min at 300 g. Cells were resuspended with RBC for 3 min, washed with RPMI 1640, transferred through 40 μm filter and centrifuged for 7 min at 300 g. Finally, cells were resuspended in PBS, stained with Trypan blue and counted. Samples were then stained for flow cytometric analyses or resuspended in fetal bovine serum containing 10% of dimethyl sulfoxide for storage in liquid nitrogen.
Human TDC samples were seeded at 0.1×10^6 of CD45+ cells per well in 96-well plate, pre-coated with anti-CD3 and anti-CD28 antibodies (10 μg/ml both). Complete medium, [RPMI 1640 (BI, Cat. #01-110-1A) supplemented with 10% human AB serum (Sigma, Cat. #H3667), 1% Penicillin/Streptomycin (BI, Cat. #03-031-1B), 1% 1-glutamine (Life Technologies, Cat. #35050-038) and 1% of sodium pyruvate (BI, Cat. #03-042-1B)] was used. […]

[4] = biological target: T2, endogenous IL-18BP (Homo sapiens, UniProt O95998); assay: TIL:MEL624 co-culture with endogenous IL-18BP levels; assay type: cell-based; settings: 5 μg/ml; IL-18 3.7 ng/ml, no added IL-18BP; 18 hours; vs isotype
T2 construct: endogenous in cells; host or cells: MEL624 cells and human TILs
T2 sequence (O95998 31-194): T1 sequence (O95998 31-194)
Procedure: A. Schematic representation of assay setup. MEL624 cells were co-cultured with human TILs that were previously enriched for MART1 or gp100 peptide-specific clones. […] The co-culture was set for 18 hours following which IFNg levels were measured in supernatants. […] Representative examples from two TIL donors are shown.

B1: ADI-71739: anti-IL18-BP antibody, sequences in FIG. 2K; 66716 lineage (antibody, V domains shown)
VH: QLQLQESGPGLVKPSETLSLTCTVSGGSISSPDYPWGWIRQPPGKGLEWIGSIYYQGATYYNPSLKSRVTISVDTSKNQFSLKLSSVTAADTAVYYCARGPYRQLFDYWGQGTLVTVSS
VL: DIQMTQSPSSVSASVGDRVTITCRASQGISSWLAWYQQKPGKAPKLLIYAASSLQSGVPSRFSGSGSGTDFTLTISSLQPEDFATYYCQQGSVFPYTFGGGTKVEIK
Blocking effect on binding of human IL18BP to human IL-18 [1]: superior to Biolegend Ab
Killing of melanoma cells by tumor infiltrating lymphocytes [2]: increased killing of melanoma cells
Cytokine and Granzyme B secretion by TDCs, vs media ([3]; 10 μg/ml, anti-CD3/anti-CD28 stimulation, human ovarian TDC sample): enhanced TNFa, IFNg, IL2 and Granzyme B secretion
Cytokine and Granzyme B secretion by TDCs, combination with pembrolizumab vs Pembro alone ([3]; each 10 μg/ml): further increased TNFa, IFNg, and Granzyme B secretion
IFNg release by tumor infiltrating lymphocytes [4]: increased IFNg release
